Tests used:
human CD40 [1] = target: T1, human CD40 (human, UniProt P25942); assay: cell-based or functional assay
human CD40 [2] = target: T1, human CD40; assay: cell-based or functional assay; remark: listed apart in the source

T1 sequence (P25942 21-277): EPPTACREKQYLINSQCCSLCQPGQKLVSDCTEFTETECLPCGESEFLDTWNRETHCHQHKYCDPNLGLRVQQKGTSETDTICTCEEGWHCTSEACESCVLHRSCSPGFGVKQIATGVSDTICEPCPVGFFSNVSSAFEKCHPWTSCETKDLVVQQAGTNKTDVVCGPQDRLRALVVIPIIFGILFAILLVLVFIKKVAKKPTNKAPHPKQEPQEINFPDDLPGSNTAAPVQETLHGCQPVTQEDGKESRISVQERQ

Binder	Antagonist: Jurkat/ Reporter assay IC50 nM; blocks m8 with m7 (human CD40 [1]) [nM]	EC50 of antagonist activity in the CD40-dependent NF-kB SEAP reporter assay (HEK-293 transfected with human CD40, stimulated with recombinant CD40L); blocks m8 with m7 (human CD40 [2]) [nM]	EC50 of inhibition of CD86 upregulation on primary human B cells stimulated with CD40L-expressing Jurkat cells; blocks m8 with m7 (human CD40 [2]) [nM]	Agonist: huCD40 reporter assay IC50 (human CD40 [1]) [nM]
ABBV-323 (ravagalimab), human IgG1/κ anti-CD40 antagonist mAb (antibody, V domains shown) VH: EVQLVESGGGLVKPGGSLRLSCAASGFTFSDYGMNWVRQAPGKGLEWIAYISSGRGNIYYADTVKGRFTISRDNAKNSLYLQMNSLRAEDTAVYYCARSWGYFDVWGQGTTVTVSS VL: DIVMTQSPDSLAVSLGERATINCKSSQSLLNRGNQKNYLTWFQQKPGQPPKLLIYWASTRESGVPDRFSGSGSGTDFTLTISSLQAEDVAVYYCQNDYTYPLTFGQGTKLEIK	3.1	3.7	0.6	
FAB516, anti-CD40 agonist antibody variant of ABBV-323 (antibody, V domains shown) VH: EVQLVESGGGLVKPGGSLRLSCAASGFTFSDYGMNWVRQAPGKGLEWVSYISSGRSNIYYADTVKGRFTISRDNAKNSLYLQMNSLRAEDTAVYYCARSWGYFDVWGQGTTVTVSS VL: DIVMTQSPDSLAVSLGERATINCKSSQSLLNLGNQKNYLTWFQQKPGQPPKLLIYWASTRESGVPDRFSGSGSGTDFTLTISSLQAEDVAVYYCQNDYTYPLTFGQGTKLEIK				157

Reference: article PMC6683420 (BMC Molecular and Cell Biology, 2019)
